Assay results taken from the RNAGym collection of RNA variant scans (doi:10.1021/acssynbio.7b00057).

B1: Pistol ribozyme (parent)
chain: GGGUCGUUGUUCCAUAAUCGCGUGGAUAUGGCACGCAAGUUUCUACCGGGCACCGUAAAUGUCCGACUGGAGCCGUUCGGGCGGCUAUAAACAGACCUCAGGCCCGAAGCGUGGCGGCACCUGCCGCCGGUGGUAAAAAAGAUCGGAAGAGCACACGUCU

Variants of: B1
Test: aptazyme ON/OFF ratio, guanine; higher = stronger switching; co-transcriptional cleavage with and without guanine

Row | Variant | aptazyme ON/OFF ratio
1 | U7G U8C G9U U10A C12A C13U | 1.24
2 | U7G U8C G9U U10A C12A C13G | 1.17
3 | U7G U8C G9U U10A C12A C13A | 1.18
4 | U7G U8C G9C U10A U11A | 3.4
5 | U7G U8C G9C U10A U11G | 1.51
6 | U7G U8C G9C U10A U11C | 1.18
7 | U7G U8C G9C U10A C12A C13G | 1.08
8 | U7G U8C G9C U10A C12A C13U | 1.05
9 | U7G U8C G9C U10A C12A C13A | 1.08
10 | U7G U8C G9C C13A | 1.11
11 | U7G U8C G9C C13G | 1.05
12 | U7G U8C G9C C13U | 1.15
13 | U7G U8C G9C U10A U11C C12G C13U | 1.31
14 | U7G U8C G9C U10A U11C C12G C13G | 1.14
15 | U7G U8C G9C U10A U11C C12G C13A | 1.33
16 | U7G U8C G9C C12A | 1.12
17 | U7G U8C G9C C12G | 1.22
18 | U7G U8C G9C C12U | 1.28
19 | U7G U8C G9C U10G C12U C13U | 1.14
20 | U7G U8C G9C U10G C12U C13A | 1.11
21 | U7G U8C G9C U10G C12U C13G | 1.08
22 | U7G U8C G9A U11C C13U | 1.21
23 | U7G U8C G9A U11C C13G | 1.06
24 | U7G U8C G9A U11C C13A | 1.34

Row | Variant | aptazyme ON/OFF ratio
25 | U7G U8C G9C C12A C13U | 1.16
26 | U7G U8C G9C C12A C13G | 1.15
27 | U7G U8C G9C C12A C13A | 1.15
28 | U7G U8C G9U U10A U11A C12A | 1.63
29 | U7G U8C G9U U10A U11A C12G | 1.6
30 | U7G U8C G9C U10C C12A C13U | 1.04
31 | U7G U8C G9C U10C C12A C13A | 1.08
32 | U7G U8C G9C U10C C12A C13G | 1.1
33 | U7G U8C G9C U11C C12A C13U | 1.53
34 | U7G U8C G9C U11C C12A C13G | 1.21
35 | U7G U8C G9C U11C C12A C13A | 1.11
36 | U7G U8C G9C U10A U11G C13A | 1.14
37 | U7G U8C G9C U10A U11G C13G | 1.15
38 | U7G U8C G9C U10A U11G C13U | 1.18
39 | U7G U8C G9C U10A U11C C12U C13G | 1.3
40 | U7G U8C G9C U10A U11C C12U C13A | 1.36
41 | U7G U8C G9C U10A U11C C12U C13U | 1.09
42 | U7G U8C G9C U10A C12U C13U | 1.04
43 | U7G U8C G9C U10A C12U C13G | 1.01
44 | U7G U8C G9C U10A C12U C13A | 1.03
45 | U7G U8C G9C U11A C13U | 1.18
46 | U7G U8C G9C U11A C13G | 1.06
47 | U7G U8C G9C U11A C13A | 1.09
48 | U7G U8C G9C U10C U11A C12A C13G | 1.09

Row | Variant | aptazyme ON/OFF ratio
49 | U7G U8C G9C U10C U11A C12A C13A | 1.04
50 | U7G U8C G9C U10C U11A C12A C13U | 1.04
51 | U7G U8C G9U U10A C12U C13A | 1.21
52 | U7G U8C G9U U10A C12U C13G | 1.16
53 | U7G U8C G9U U10A C12U C13U | 1.16
54 | U7G U8C G9C U10G C13A | 1.3
55 | U7G U8C G9C U10G C13G | 1.26
56 | U7G U8C G9C U10G C13U | 1.33
57 | U7G U8C G9C U10C U11A C13A | 1.04
58 | U7G U8C G9C U10C U11A C13G | 1.11
59 | U7G U8C G9C U10C U11A C13U | 1.03
60 | U7G U8C G9C U11C C12U | 1.78
61 | U7G U8C G9C U11C C12G | 1.34
62 | U7G U8C G9C U11C C12A | 1.9
63 | U7G U8C G9U U10A C12G C13A | 1.13
64 | U7G U8C G9U U10A C12G C13G | 1.08
65 | U7G U8C G9U U10A C12G C13U | 1.22
66 | U7G U8C G9C U10G C12G C13G | 1.07
67 | U7G U8C G9C U10G C12G C13U | 1.1
68 | U7G U8C G9C U10G C12G C13A | 1.09
69 | U7G U8C G9U | 4.98
70 | U7G U8C G9C | 1.35
71 | U7G U8C G9C U11G C12A C13A | 1.14
72 | U7G U8C G9C U11G C12A C13U | 1.23

Row | Variant | aptazyme ON/OFF ratio
73 | U7G U8C G9C U11G C12A C13G | 1.33
74 | U7G U8C G9U C12U C13A | 1.18
75 | U7G U8C G9U C12U C13G | 1.16
76 | U7G U8C G9U C12U C13U | 1.41
77 | U7G U8C G9A U11G C12A C13U | 1.12
78 | U7G U8C G9A U11G C12A C13A | 1.1
79 | U7G U8C G9A U11G C12A C13G | 1.1
80 | U7G U8C G9A U11C C12A | 2
81 | U7G U8C G9A U11C C12G | 1.4
82 | U7G U8C G9A U11C C12U | 1.65
83 | U7G U8C G9C U10G U11G C12A C13G | 1.13
84 | U7G U8C G9C U10G U11G C12A C13A | 1.11
85 | U7G U8C G9C U10G U11G C12A C13U | 1.1
86 | U7G U8C G9C U10A U11C C12U | 1.32
87 | U7G U8C G9C U10A U11C C12G | 1.26
88 | U7G U8C G9C U10A U11C C12A | 1.33
89 | U7G U8C G9C U10A U11G C12U C13U | 1.17
90 | U7G U8C G9C U10A U11G C12U C13G | 1.24
91 | U7G U8C G9C U10A U11G C12U C13A | 1.22
92 | U7G U8C G9C U10C U11G C12U | 1.1
93 | U7G U8C G9C U10C U11G C12G | 1.06
94 | U7G U8C G9C U10C U11G C12A | 1.14
95 | U7G U8C G9C U10G U11A C13G | 1.19
96 | U7G U8C G9C U10G U11A C13A | 1.05

Row | Variant | aptazyme ON/OFF ratio
97 | U7G U8C G9C U10G U11A C13U | 1.05
98 | U7G U8C G9C U10C U11C C13A | 1.04
99 | U7G U8C G9C U10C U11C C13G | 1.36
100 | U7G U8C G9C U10C U11C C13U | 0.999
101 | U7G U8C G9C U10G U11G C13A | 1.1
102 | U7G U8C G9C U10G U11G C13G | 1.12
103 | U7G U8C G9C U10G U11G C13U | 1.06
104 | U7G U8C G9C U10G U11G C12G | 1.13
105 | U7G U8C G9C U10G U11G C12A | 1.17
106 | U7G U8C G9C U10G U11G C12U | 1.06
107 | U7G U8C G9C U10C U11G C12A C13G | 1.09
108 | U7G U8C G9C U10C U11G C12A C13U | 1.1
109 | U7G U8C G9C U10C U11G C12A C13A | 1.19
110 | U7G U8C G9C U11A C12U C13U | 1.22
111 | U7G U8C G9C U11A C12U C13G | 1.13
112 | U7G U8C G9C U11A C12U C13A | 1.09
113 | U7G U8C G9C U10G U11A C12A C13G | 1.11
114 | U7G U8C G9C U10G U11A C12A C13A | 1.1
115 | U7G U8C G9C U10G U11A C12A C13U | 1.25
116 | U7G U8C G9A U11G C12U C13U | 1.18
117 | U7G U8C G9A U11G C12U C13A | 1.11
118 | U7G U8C G9A U11G C12U C13G | 1.07
119 | U7G U8C G9C U10A U11A C13G | 1.1
120 | U7G U8C G9C U10A U11A C13U | 1.23

Row | Variant | aptazyme ON/OFF ratio
121 | U7G U8C G9C U10A U11A C13A | 1.09
122 | U7G U8C G9C U10G U11A C12U C13G | 1.04
123 | U7G U8C G9C U10G U11A C12U C13A | 1.03
124 | U7G U8C G9C U10G U11A C12U C13U | 1.03
125 | U7G U8C G9A U11C C12G C13A | 1.05
126 | U7G U8C G9A U11C C12G C13G | 1.05
127 | U7G U8C G9A U11C C12G C13U | 1.16
128 | U7G U8C G9C U10A C13U | 1.07
129 | U7G U8C G9C U10A C13A | 1.08
130 | U7G U8C G9C U10A C13G | 1.07
131 | U7G U8C G9C U10A U11G C12A | 1.08
132 | U7G U8C G9C U10A U11G C12G | 1.17
133 | U7G U8C G9C U10A U11G C12U | 1.26
134 | U7G U8C G9C U10G U11A C12G C13U | 1.1
135 | U7G U8C G9C U10G U11A C12G C13A | 1.07
136 | U7G U8C G9C U10G U11A C12G C13G | 1.21
137 | U7G U8C G9C U11C C12G C13A | 1.2
138 | U7G U8C G9C U11C C12G C13U | 1.11
139 | U7G U8C G9C U11C C12G C13G | 1.07
140 | U7G U8C G9C U10A U11C C13G | 1.26
141 | U7G U8C G9C U10A U11C C13U | 1.25
142 | U7G U8C G9C U10A U11C C13A | 1.41
143 | U7G U8C G9C U11G C12U | 1.66
144 | U7G U8C G9C U11G C12G | 1.07

Row | Variant | aptazyme ON/OFF ratio
145 | U7G U8C G9C U11G C12A | 1.39
146 | U7G U8C G9C U11C C12U C13A | 1.22
147 | U7G U8C G9C U11C C12U C13G | 1.1
148 | U7G U8C G9C U11C C12U C13U | 1.34
149 | U7G U8C G9C U10G C12G | 1.12
150 | U7G U8C G9C U10G C12U | 1.14
151 | U7G U8C G9C U10G C12A | 1.13
152 | U7G U8C G9C U10A U11G C12G C13A | 1.08
153 | U7G U8C G9C U10A U11G C12G C13U | 1.1
154 | U7G U8C G9C U10A U11G C12G C13G | 1.12
155 | U7G U8C G9C U10G U11C C12A | 1.36
156 | U7G U8C G9C U10G U11C C12U | 1.12
157 | U7G U8C G9C U10G U11C C12G | 1.21
158 | U7G U8C G9C U10C U11G C12G C13A | 1.1
159 | U7G U8C G9C U10C U11G C12G C13G | 1.09
160 | U7G U8C G9C U10C U11G C12G C13U | 1.05
161 | U7G U8C G9C U10G C12A C13G | 1.1
162 | U7G U8C G9C U10G C12A C13A | 1.1
163 | U7G U8C G9C U10G C12A C13U | 1.13
164 | U7G U8C G9C U10G U11G C12G C13U | 1.09
165 | U7G U8C G9C U10G U11G C12G C13G | 1.08
166 | U7G U8C G9C U10G U11G C12G C13A | 1.06
167 | U7G U8C G9C U11G C12U C13U | 1.37
